One data set addresses T1, hPIF1HD V258A (Homo sapiens, UniProt Q9H611 206-620, V258A).
T1 sequence: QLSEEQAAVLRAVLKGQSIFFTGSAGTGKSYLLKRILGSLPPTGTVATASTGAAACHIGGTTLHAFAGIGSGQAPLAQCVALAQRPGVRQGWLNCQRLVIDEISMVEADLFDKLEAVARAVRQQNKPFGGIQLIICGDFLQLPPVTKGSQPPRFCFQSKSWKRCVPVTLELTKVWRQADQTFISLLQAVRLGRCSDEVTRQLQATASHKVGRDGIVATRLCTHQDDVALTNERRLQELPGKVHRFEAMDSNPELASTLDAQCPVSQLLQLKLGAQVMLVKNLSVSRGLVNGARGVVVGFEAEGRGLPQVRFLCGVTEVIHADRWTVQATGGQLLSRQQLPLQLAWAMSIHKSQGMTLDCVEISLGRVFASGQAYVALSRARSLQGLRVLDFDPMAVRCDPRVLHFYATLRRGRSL
Description: EMSA; 5 mM AMP-PNP, 5.5 mM MgCl2; no inhibitor; 20 mM HEPES-NaOH pH 7.5, 20 mM NaCl, 5.5 mM MgCl2, 5 mM AMP-PNP, 1 mM DTT, 0.1 mg/ml BSA; 0.25 nM DNA; binding temperature not stated explicitly (helicase assay conditions 37 C); 5% PAGE, 0.25x TBE. Conditions: protein: recombinant; tags: N-terminal His6 removed; GSRM cloning residues remain; label: 5'-32P; single strand. Background: In EMSA bound probe runs differently from free probe, usually more slowly.

In a further data set the target is T2, hPIF1HD V258L (Homo sapiens, UniProt Q9H611 206-620, V258L).
T2 sequence: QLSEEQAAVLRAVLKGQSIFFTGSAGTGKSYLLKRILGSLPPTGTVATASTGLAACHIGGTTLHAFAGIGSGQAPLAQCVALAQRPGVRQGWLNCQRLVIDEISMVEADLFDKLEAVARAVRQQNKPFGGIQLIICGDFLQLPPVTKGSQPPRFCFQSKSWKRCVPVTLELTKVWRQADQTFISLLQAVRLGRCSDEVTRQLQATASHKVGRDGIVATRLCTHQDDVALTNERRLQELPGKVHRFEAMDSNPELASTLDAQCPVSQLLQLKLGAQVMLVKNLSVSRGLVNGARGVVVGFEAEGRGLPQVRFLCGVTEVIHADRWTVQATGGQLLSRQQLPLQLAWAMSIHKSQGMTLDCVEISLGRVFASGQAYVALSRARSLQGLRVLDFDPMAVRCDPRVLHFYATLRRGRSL
Described as above. The settings on record: protein: recombinant; tags: N-terminal His6 removed; GSRM cloning residues remain; label: 5'-32P; single strand.

This note sets out measurements from article PMC11551755, “Structure-based discovery of first inhibitors targeting the helicase activity of human PIF1” (Nucleic Acids Research, 2024).

B1: oligo d(T)55 (ssDNA)
DNA: TTTTTTTTTTTTTTTTTTTTTTTTTTTTTTTTTTTTTTTTTTTTTTTTTTTTTTT
Turning to B1, the binding signal was about 2 fold reduced vs wild type in the data set with hPIF1HD V258A and ~1 fold vs wild type (near equivalent) with hPIF1HD V258L.
